Data on 2 molecules can be found in paper PMC8082267, “Inhibition of the PP2A activity by the histone chaperone ANP32B is long-range allosterically regulated by respiratory cytochrome c” (Redox Biology, 2021).

Holding throughout (conditions): both partners purified
Assay [1] has as its target T1, full-length ANP32B (ANP32B_(1-251)), recombinant (human, UniProt Q92688-1 1-251).
T1 construct: cloned by PCR from cDNA (Geneservice, UK) into pET28a(+); source: E. coli BL21 (DE3) pLysS, purified (Ni-NTA, Superdex 200)
The assay can be described thus: ITC; high ionic strength: reduced Cc injected into ANP32B_(1-251), 10 mM sodium phosphate pH 7.4 with 150 mM NaCl.

In assay [2] the target is T1, full-length ANP32B (ANP32B_(1-251)), …. The assay can be described thus: ITC; low ionic strength: 400 μM reduced Cc injected into ANP32B construct in the cell (50 μM ANP32B_(1-251), 40 μM ANP32B_(1-231), 50 μM ANP32B_(1-161)), 10 mM sodium phosphate pH 7.4; models with one or two independent binding sites.
Assay [3] concerns the target T2, ANP32B construct lacking its Nuclear Localization Signal sequence (ANP32B_(1-231)) (human, UniProt Q92688-1 1-231).
T2 construct: lacks the 20-amino acid C-end stretch; source: E. coli BL21 (DE3) pLysS, purified (Ni-NTA, Superdex 200)
Described as above.

In assay [4] the target is T3, full-length ANP32B (ANP32B1-251) (human, UniProt Q92688-1 1-251).
T3 construct: also called Acidic leucine-rich Nuclear Phosphoprotein 32 family member B; source: E. coli BL21 (DE3) pLysS, pET28a(+), purified (Ni-NTA, Superdex 200)
T3 sequence (Q92688 whole entry): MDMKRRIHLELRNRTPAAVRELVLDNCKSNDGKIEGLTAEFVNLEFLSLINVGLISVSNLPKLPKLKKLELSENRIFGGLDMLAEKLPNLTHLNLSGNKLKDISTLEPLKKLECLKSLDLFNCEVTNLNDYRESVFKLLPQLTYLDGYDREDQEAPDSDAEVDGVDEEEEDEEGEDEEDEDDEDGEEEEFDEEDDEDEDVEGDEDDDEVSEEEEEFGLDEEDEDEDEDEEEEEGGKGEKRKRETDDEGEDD
The assay can be described thus: ITC; reduced Cc (400 uM stock) injected into ANP32B1-251 (50 uM) in the cell; 10 mM sodium phosphate pH 7.4 with 150 mM NaCl; single binding site.

T2 sequence (Q92688 1-231): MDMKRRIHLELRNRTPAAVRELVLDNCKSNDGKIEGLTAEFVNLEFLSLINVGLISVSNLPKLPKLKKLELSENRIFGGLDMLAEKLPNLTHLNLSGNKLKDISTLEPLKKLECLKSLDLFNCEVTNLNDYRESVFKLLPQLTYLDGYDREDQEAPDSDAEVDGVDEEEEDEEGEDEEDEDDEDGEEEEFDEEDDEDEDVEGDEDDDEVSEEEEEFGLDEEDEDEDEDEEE
T1 sequence (Q92688 whole entry): as the sequence (Q92688 whole entry) above

B1: recombinant respiratory cytochrome c (natural protein)
chain: not shown
modifications: heme group (hemeprotein), reduced with sodium ascorbate; 15N-labelled in the HSQC titrations
notes: cytochrome c, human; also called Cc; the hemeprotein
For the molecule B1, the “stoichiometry N” value in assay [1] was found to be 1. Further, in assay [2], the “dH, higher-affinity site (two independent sites)” value is -10.7 kcal/mol and the “dH, lower-affinity site (two independent sites)” value turned out to be 29.5 kcal/mol. In addition, in assay [3], the Kd is 8 µM, the dH was -3.6 kcal/mol and the “stoichiometry N” value was 1.09.

B2: cytochrome c (natural protein)
chain: not shown
modifications: heme group; kept in the reduced redox state; 15N-labelled in the NMR titrations
notes: cytochrome c, human (the anti-human Cc serum was raised against this recombinant Cc); NMR assignment BMRB 5406 and structure PDB 1J3S are used for it; also called Cc; respiratory cytochrome c; source: E. coli BL21 (DE3), pBTR1 vector also encoding yeast heme lyase, purified (carboxymethyl cellulose ion exchange)
As for B2, in assay [4], the Kd came to 9.1 µM and the “stoichiometry N” value is 1.2.
